In paper PMC4692269 one finds Kd, fold higher affinity against 32H+3L on the same trimer and fold enhanced affinity against its binding to the wild-type trimer data, which are given here for five molecules.

Numbering of substitutions follows the chain as printed.

For orientation: Kd means the free concentration of one partner at which half of the binding sites on the other are occupied at equilibrium, for simple one-to-one binding. High values mean weaker binding, low ones tighter binding.

Assay [1] deals with BG505 SOSIP.664 trimer, wild type, produced in 293S cells (HIV-1 (clade A strain BG505)) (UniProt Q2N0S6). Description: ITC. For orientation: Isothermal titration calorimetry measures the heat released or taken up as one component is titrated into another.
The target in assay [2] is BG505 SOSIP.664-N137A trimer, produced in 293S cells (HIV-1 (clade A strain BG505)). Description: ITC.

With “PGT124 (mature bnAb of the PGT121 family) (Fab)”, in assay [1], the Kd stood at 32 nM and the fold higher affinity against 32H+3L on the same trimer came out at 13 fold.

B1: 9H+3L Fab (inferred intermediate of the PGT122 branch) (Fab, V domains shown)
VH: QVQLQESGPGLVKPSETLSLTCSVSGASISDHYWSWIRQSPGKGLEWIGYVYDSGDTNYNPSLKSRVNLSLDTSKNQVSLSLTAVTAADSAIYYCARTQHGRRIYGIVAFREWFTYFYMDVWGQGTPVTVSS
VL: SYVLTQPSQLSVAPGETARISCGGRSLGSRAVQWYQQKPGQAPVLVIYNNQDRPSGIPERFSGSPDSNFGTTATLTISRVEAGDEADYYCHMWDSRSAINWVFGGGTKLTVL
As to B1, in assay [2], the fold enhanced affinity against its binding to the wild-type trimer is 11 fold.

B2: 3H+3L Fab (inferred early precursor of the PGT121 family) (Fab, V domains shown)
VH: QVQLQESGPGLVKPSETLSLTCTVSGGSISNYYWSWIRQSPGKGLEWIGYISDSESTNYNPSLKSRVIISVDTSKNQLSLKLNSVTAADSAIYYCARAQQGKRIYGMVSFGEFFYYYYMDVWGKGTTVTVSS
VL: B1 VL
Regarding B2, in assay [2], the equilibrium dissociation constant (Kd) is 35 nM and the fold enhanced affinity against its binding to the wild-type trimer came out at 15 fold.

B3: PGT124 (mature bnAb of the PGT121 family) (Fab, V domains shown)
VH: QVQLQESGPGLVRPSETLSVTCIVSGGSISNYYWTWIRQSPGKGLEWIGYISDRETTTYNPSLNSRAVISRDTSKNQLSLQLRSVTTADTAIYFCATARRGQRIYGVVSFGEFFYYYYMDVWGKGTAVTVSS
VL: SYVSPLSVALGETARISCGRQALGSRAVQWYQHKPGQAPILLIYNNQDRPSGIPERFSGTPDINFGTTATLTISGVEVGDEADYYCHMWDSRSGFSWSFGGATRLTVL
For the molecule B3, the fold enhanced affinity against its binding to the wild-type trimer in assay [2] came out at 5 fold.

B4: 32H+3L Fab (inferred intermediate of the PGT124 branch) (Fab, V domains shown)
VH: B3 VH with R13K, N64K, A67V, Q81K, R83N, T87A, F94Y
VL: B1 VL
In the case of B4, in assay [2], the fold enhanced affinity against its binding to the wild-type trimer is 16 fold.
